T1: FcγRIIa H (human, UniProt P12318 34-217)
T1 construct: extracellular domain; also called FcgRIIa H; 2aH; not shown: His tag at the C terminus
T1 sequence (looked up): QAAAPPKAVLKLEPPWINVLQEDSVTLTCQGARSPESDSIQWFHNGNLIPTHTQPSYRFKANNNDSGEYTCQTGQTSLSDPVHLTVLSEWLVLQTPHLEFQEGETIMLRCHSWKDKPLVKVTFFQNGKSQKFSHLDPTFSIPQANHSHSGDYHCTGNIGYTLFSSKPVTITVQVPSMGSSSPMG

T2: FcγRIIb (human, UniProt P31994 43-217)
T2 construct: extracellular domain; also called FcgRIIb; 2b; not shown: His tag at the C terminus
T2 sequence (looked up): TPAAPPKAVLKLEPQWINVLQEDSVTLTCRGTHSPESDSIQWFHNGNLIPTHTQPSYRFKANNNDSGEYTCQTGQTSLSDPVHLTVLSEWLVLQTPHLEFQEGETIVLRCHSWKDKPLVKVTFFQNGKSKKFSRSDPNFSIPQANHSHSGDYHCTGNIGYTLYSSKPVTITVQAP

T3: FcγRIIa R (extracellular domain, His tag at the C terminus) (human, UniProt P12318 34-217)
T3 construct: extracellular domain; Soluble analyte in Biacore; also called FcgRIIa R type; 2aR
T3 sequence (looked up): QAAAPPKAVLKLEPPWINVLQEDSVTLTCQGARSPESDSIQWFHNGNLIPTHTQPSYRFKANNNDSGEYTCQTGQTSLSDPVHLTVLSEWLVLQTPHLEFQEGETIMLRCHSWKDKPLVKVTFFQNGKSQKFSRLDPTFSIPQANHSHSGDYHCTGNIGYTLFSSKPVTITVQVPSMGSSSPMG

B1: GpH7-A5/GpH7-B3 variant P329_18N/GpL16-k0 (antibody, human IgG1, kappa)
heavy 1: not shown
heavy 2: not shown
light: DIVMTQSPLSLPVTPGEPASISCQASESLVHSNRNTYLHWYLQKPGQSPQLLIYKVSNRFSGVPDRFSGSGSGTDFTLKISRVEAEDVGVYYCSQNTHVPPTFGQGTKVEIERTVAAPSVFIFPPSDEQLKSGTASVVCLLNNFYPREAKVQWKVDNALQSGNSQESVTEQDSKDSTYSLSSTLTLSKADYEKHKVYACEVTHQGLSSPVTKSFNRGEC
notes: He Ab: mutation in the GpH7-B3 H chain only
B2: GpH7-B3 variant T335_15Y/GpL16-k0 (antibody, human IgG1, kappa)
heavy: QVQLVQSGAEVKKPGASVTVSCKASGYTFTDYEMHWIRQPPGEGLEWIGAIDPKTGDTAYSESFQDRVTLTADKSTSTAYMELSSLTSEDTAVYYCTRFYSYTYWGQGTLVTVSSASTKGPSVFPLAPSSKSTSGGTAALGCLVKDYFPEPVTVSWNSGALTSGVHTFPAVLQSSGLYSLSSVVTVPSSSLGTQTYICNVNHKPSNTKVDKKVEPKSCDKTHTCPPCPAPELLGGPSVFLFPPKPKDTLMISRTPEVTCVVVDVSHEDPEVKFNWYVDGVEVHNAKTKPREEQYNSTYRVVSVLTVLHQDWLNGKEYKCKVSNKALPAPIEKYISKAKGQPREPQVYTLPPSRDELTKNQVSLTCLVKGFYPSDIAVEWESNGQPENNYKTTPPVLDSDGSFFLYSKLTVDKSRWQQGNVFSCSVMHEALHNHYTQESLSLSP
light: DIVMTQSPLSLPVTPGEPASISCQASESLVHSNRNTYLHWYLQKPGQSPQLLIYKVSNRFSGVPDRFSGSGSGTDFTLKISRVEAEDVGVYYCSQNTHVPPTFGQGTKVEIERTVAAPSVFIFPPSDEQLKSGTASVVCLLNNFYPREAKVQWKVDNALQSGNSQESVTEQDSKDSTYSLSSTLTLSKADYEKHKVYACEVTHQGLSSPVTKSFNRGEC
notes: homodimerized; also called Ho Ab
B3: GpH7-A5/GpH7-B3 variant Y300_12R/GpL16-k0 (antibody, human IgG1, kappa)
heavy 1: not shown
heavy 2: not shown
light: DIVMTQSPLSLPVTPGEPASISCQASESLVHSNRNTYLHWYLQKPGQSPQLLIYKVSNRFSGVPDRFSGSGSGTDFTLKISRVEAEDVGVYYCSQNTHVPPTFGQGTKVEIERTVAAPSVFIFPPSDEQLKSGTASVVCLLNNFYPREAKVQWKVDNALQSGNSQESVTEQDSKDSTYSLSSTLTLSKADYEKHKVYACEVTHQGLSSPVTKSFNRGEC
notes: as for B1
B4: GpH7-A5/GpH7-B3 variant P329_19Q/GpL16-k0 (antibody, human IgG1, kappa)
heavy 1: not shown
heavy 2: not shown
light: DIVMTQSPLSLPVTPGEPASISCQASESLVHSNRNTYLHWYLQKPGQSPQLLIYKVSNRFSGVPDRFSGSGSGTDFTLKISRVEAEDVGVYYCSQNTHVPPTFGQGTKVEIERTVAAPSVFIFPPSDEQLKSGTASVVCLLNNFYPREAKVQWKVDNALQSGNSQESVTEQDSKDSTYSLSSTLTLSKADYEKHKVYACEVTHQGLSSPVTKSFNRGEC
notes: as for B1
B5: GpH7-A5/GpH7-B3 variant S324_12R/GpL16-k0 (antibody, human IgG1, kappa)
heavy 1: not shown
heavy 2: not shown
light: DIVMTQSPLSLPVTPGEPASISCQASESLVHSNRNTYLHWYLQKPGQSPQLLIYKVSNRFSGVPDRFSGSGSGTDFTLKISRVEAEDVGVYYCSQNTHVPPTFGQGTKVEIERTVAAPSVFIFPPSDEQLKSGTASVVCLLNNFYPREAKVQWKVDNALQSGNSQESVTEQDSKDSTYSLSSTLTLSKADYEKHKVYACEVTHQGLSSPVTKSFNRGEC
notes: as for B1
B6: GpH7-A5/GpH7-B3 variant S324_09D/GpL16-k0 (antibody, human IgG1, kappa)
heavy 1: not shown
heavy 2: not shown
light: DIVMTQSPLSLPVTPGEPASISCQASESLVHSNRNTYLHWYLQKPGQSPQLLIYKVSNRFSGVPDRFSGSGSGTDFTLKISRVEAEDVGVYYCSQNTHVPPTFGQGTKVEIERTVAAPSVFIFPPSDEQLKSGTASVVCLLNNFYPREAKVQWKVDNALQSGNSQESVTEQDSKDSTYSLSSTLTLSKADYEKHKVYACEVTHQGLSSPVTKSFNRGEC
notes: as for B1
B7: GpH7-A5/GpH7-B3 variant S324_02A/GpL16-k0 (antibody, human IgG1, kappa)
heavy 1: not shown
heavy 2: not shown
light: DIVMTQSPLSLPVTPGEPASISCQASESLVHSNRNTYLHWYLQKPGQSPQLLIYKVSNRFSGVPDRFSGSGSGTDFTLKISRVEAEDVGVYYCSQNTHVPPTFGQGTKVEIERTVAAPSVFIFPPSDEQLKSGTASVVCLLNNFYPREAKVQWKVDNALQSGNSQESVTEQDSKDSTYSLSSTLTLSKADYEKHKVYACEVTHQGLSSPVTKSFNRGEC
notes: as for B1
B8: GpH7-A5/GpH7-B3 variant Y300_13S/GpL16-k0 (antibody, human IgG1, kappa)
heavy 1: not shown
heavy 2: not shown
light: DIVMTQSPLSLPVTPGEPASISCQASESLVHSNRNTYLHWYLQKPGQSPQLLIYKVSNRFSGVPDRFSGSGSGTDFTLKISRVEAEDVGVYYCSQNTHVPPTFGQGTKVEIERTVAAPSVFIFPPSDEQLKSGTASVVCLLNNFYPREAKVQWKVDNALQSGNSQESVTEQDSKDSTYSLSSTLTLSKADYEKHKVYACEVTHQGLSSPVTKSFNRGEC
notes: as for B1
B9: GpH7-A5/GpH7-B3 variant S324_16H/GpL16-k0 (antibody, human IgG1, kappa)
heavy 1: not shown
heavy 2: not shown
light: DIVMTQSPLSLPVTPGEPASISCQASESLVHSNRNTYLHWYLQKPGQSPQLLIYKVSNRFSGVPDRFSGSGSGTDFTLKISRVEAEDVGVYYCSQNTHVPPTFGQGTKVEIERTVAAPSVFIFPPSDEQLKSGTASVVCLLNNFYPREAKVQWKVDNALQSGNSQESVTEQDSKDSTYSLSSTLTLSKADYEKHKVYACEVTHQGLSSPVTKSFNRGEC
notes: as for B1
B10: GpH7-A5/GpH7-B3 variant S324_01G/GpL16-k0 (antibody, human IgG1, kappa)
heavy 1: not shown
heavy 2: not shown
light: DIVMTQSPLSLPVTPGEPASISCQASESLVHSNRNTYLHWYLQKPGQSPQLLIYKVSNRFSGVPDRFSGSGSGTDFTLKISRVEAEDVGVYYCSQNTHVPPTFGQGTKVEIERTVAAPSVFIFPPSDEQLKSGTASVVCLLNNFYPREAKVQWKVDNALQSGNSQESVTEQDSKDSTYSLSSTLTLSKADYEKHKVYACEVTHQGLSSPVTKSFNRGEC
notes: as for B1
B11: GpH7-B3 variant G236_09D/GpL16-k0 (antibody, human IgG1, kappa)
heavy: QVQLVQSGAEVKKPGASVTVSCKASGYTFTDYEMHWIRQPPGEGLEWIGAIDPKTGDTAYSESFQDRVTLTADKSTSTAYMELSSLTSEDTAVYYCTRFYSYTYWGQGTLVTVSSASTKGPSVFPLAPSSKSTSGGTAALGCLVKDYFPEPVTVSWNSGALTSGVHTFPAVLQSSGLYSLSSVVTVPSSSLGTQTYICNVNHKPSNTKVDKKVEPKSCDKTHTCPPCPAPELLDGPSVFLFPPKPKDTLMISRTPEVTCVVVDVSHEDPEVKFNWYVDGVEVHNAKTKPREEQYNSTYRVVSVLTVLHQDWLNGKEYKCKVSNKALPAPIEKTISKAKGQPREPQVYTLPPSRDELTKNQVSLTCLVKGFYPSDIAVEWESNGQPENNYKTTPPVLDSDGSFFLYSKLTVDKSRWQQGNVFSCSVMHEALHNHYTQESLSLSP
light: DIVMTQSPLSLPVTPGEPASISCQASESLVHSNRNTYLHWYLQKPGQSPQLLIYKVSNRFSGVPDRFSGSGSGTDFTLKISRVEAEDVGVYYCSQNTHVPPTFGQGTKVEIERTVAAPSVFIFPPSDEQLKSGTASVVCLLNNFYPREAKVQWKVDNALQSGNSQESVTEQDSKDSTYSLSSTLTLSKADYEKHKVYACEVTHQGLSSPVTKSFNRGEC
notes: as for B2
B12: GpH7-A5/GpH7-B3 variant S324_11K/GpL16-k0 (antibody, human IgG1, kappa)
heavy 1: not shown
heavy 2: not shown
light: DIVMTQSPLSLPVTPGEPASISCQASESLVHSNRNTYLHWYLQKPGQSPQLLIYKVSNRFSGVPDRFSGSGSGTDFTLKISRVEAEDVGVYYCSQNTHVPPTFGQGTKVEIERTVAAPSVFIFPPSDEQLKSGTASVVCLLNNFYPREAKVQWKVDNALQSGNSQESVTEQDSKDSTYSLSSTLTLSKADYEKHKVYACEVTHQGLSSPVTKSFNRGEC
notes: as for B1
B13: GpH7-A5/GpH7-B3 variant Y300_14T/GpL16-k0 (antibody, human IgG1, kappa)
heavy 1: not shown
heavy 2: not shown
light: DIVMTQSPLSLPVTPGEPASISCQASESLVHSNRNTYLHWYLQKPGQSPQLLIYKVSNRFSGVPDRFSGSGSGTDFTLKISRVEAEDVGVYYCSQNTHVPPTFGQGTKVEIERTVAAPSVFIFPPSDEQLKSGTASVVCLLNNFYPREAKVQWKVDNALQSGNSQESVTEQDSKDSTYSLSSTLTLSKADYEKHKVYACEVTHQGLSSPVTKSFNRGEC
notes: as for B1
B14: GpH7-A5/GpH7-B3 variant S324_18N/GpL16-k0 (antibody, human IgG1, kappa)
heavy 1: not shown
heavy 2: not shown
light: DIVMTQSPLSLPVTPGEPASISCQASESLVHSNRNTYLHWYLQKPGQSPQLLIYKVSNRFSGVPDRFSGSGSGTDFTLKISRVEAEDVGVYYCSQNTHVPPTFGQGTKVEIERTVAAPSVFIFPPSDEQLKSGTASVVCLLNNFYPREAKVQWKVDNALQSGNSQESVTEQDSKDSTYSLSSTLTLSKADYEKHKVYACEVTHQGLSSPVTKSFNRGEC
notes: as for B1
B15: GpH7-A5/GpH7-B3 variant S324_19Q/GpL16-k0 (antibody, human IgG1, kappa)
heavy 1: not shown
heavy 2: not shown
light: DIVMTQSPLSLPVTPGEPASISCQASESLVHSNRNTYLHWYLQKPGQSPQLLIYKVSNRFSGVPDRFSGSGSGTDFTLKISRVEAEDVGVYYCSQNTHVPPTFGQGTKVEIERTVAAPSVFIFPPSDEQLKSGTASVVCLLNNFYPREAKVQWKVDNALQSGNSQESVTEQDSKDSTYSLSSTLTLSKADYEKHKVYACEVTHQGLSSPVTKSFNRGEC
notes: as for B1
B16: GpH7-A5/GpH7-B3 variant S324_10E/GpL16-k0 (antibody, human IgG1, kappa)
heavy 1: not shown
heavy 2: not shown
light: DIVMTQSPLSLPVTPGEPASISCQASESLVHSNRNTYLHWYLQKPGQSPQLLIYKVSNRFSGVPDRFSGSGSGTDFTLKISRVEAEDVGVYYCSQNTHVPPTFGQGTKVEIERTVAAPSVFIFPPSDEQLKSGTASVVCLLNNFYPREAKVQWKVDNALQSGNSQESVTEQDSKDSTYSLSSTLTLSKADYEKHKVYACEVTHQGLSSPVTKSFNRGEC
notes: as for B1

What was measured:
FcγRIIa H [1] = biological target: T1, FcγRIIa H; experiment: SPR (Biacore); He/Con_2aH divided by He/Con_2b (FcγRIIa H versus FcγRIIb)
FcγRIIa H [2] = biological target: T1, FcγRIIa H; experiment: SPR (Biacore), FcγR passed over captured antibody; binding amount as % of control GpH7-A5/GpH7-B3/GpL16-k0 (=100)
FcγRIIb = biological target: T2, FcγRIIb; experiment: as above
[3] = biological target: T3, FcγRIIa R (extracellular domain, His …); experiment: SPR (Biacore), relative binding, control GpH7-B3/GpL16-k0 = 100
Description: Analysis of interaction between objective antibody and the FcγR was carried out using Biacore T100 (GE Healthcare). HBS-EP+ (GE Healthcare) was used as the running buffer, and the measurement temperature was set to 25° C. Chips produced by immobilizing the antigen peptide by the amine coupling method to a Series S Sencor Chip CM5 (GE Healthcare), or alternatively, chips produced by allowing preliminarily biotinylated antigen peptides to interact with and immobilize onto a Series S Sensor Chip SA (certified) (GE Healthcare) were used. Antibodies of interest were captured onto an antigen peptide-immobilized chip, and allowed to interact to each FcγR diluted with running buffer. To regenerate and repeatedly use the chip, the antibodies captured on the chip were washed off by reacting 10 mM glycine-HCl, pH 1.5.

| Binder | He_2aH/2b (IIaH/IIb) (FcγRIIa H [1]) | He/Con_2aH (FcγRIIa H [2]) | He/Con_2b (FcγRIIb) | Ho/Con_2aR [3] |
| --- | --- | --- | --- | --- |
| B1 | 1.64 ratio | 66.2 relative, control = 100 | 40.4 relative, control = 100 |  |
| B2 |  |  |  | 107 % of control |
| B3 | 1.34 ratio | 55.4 relative, control = 100 | 41.2 relative, control = 100 |  |
| B4 | 1.26 ratio | 38.7 relative, control = 100 | 30.7 relative, control = 100 |  |
| B5 | 1.53 ratio | 96.5 relative, control = 100 | 63.1 relative, control = 100 |  |
| B6 | 1.23 ratio | 106 relative, control = 100 | 85.8 relative, control = 100 |  |
| B7 | 1.31 ratio | 102 relative, control = 100 | 78.3 relative, control = 100 |  |
| B8 | 1.64 ratio | 88.1 relative, control = 100 | 53.9 relative, control = 100 |  |
| B9 | 1.22 ratio | 102 relative, control = 100 | 83.5 relative, control = 100 |  |
| B10 | 1.22 ratio | 98.8 relative, control = 100 | 81.1 relative, control = 100 |  |
| B11 |  |  |  | 107 % of control |
| B12 | 1.34 ratio | 92.2 relative, control = 100 | 68.6 relative, control = 100 |  |
| B13 | 1.69 ratio | 94.1 relative, control = 100 | 55.6 relative, control = 100 |  |
| B14 | 1.21 ratio | 97.8 relative, control = 100 | 81.1 relative, control = 100 |  |
| B15 | 1.44 ratio | 96 relative, control = 100 | 66.8 relative, control = 100 |  |
| B16 | 1.33 ratio | 103 relative, control = 100 | 77.4 relative, control = 100 |  |

Source: patent publication US20150344570A1 (published 2015)
